# Results taken from doi:10.1101/2023.08.14.553235.
# Target: GFP1–10 tagged with MCP, with nuclear localization sequences
# Assay: P3 editing (protein-protein proximity sensor; genome editing read-out); HEK293T cells transfected with one of 12 designs of crRNA-MS2/BoxB-petracrRNA (upper 4-bp region of the repeat:anti-repeat duplex varied), PE4max and split-GFP or standard GFP (background); editing normalized to the eCTT control
substance,measurement,value
"GFP11 tagged with LambdaN, with nuclear localization sequences (peptide)",normalized editing efficiency (GAUA:UAUC guide RNA design),3.8%
